Target: RorSlfn5, Schlafen nuclease fused to an Ig-like domain, from Raoultella ornithinolytica (Raoultella ornithinolytica)
Experiment: SEC-MALS

## RorSlfn5, Schlafen nuclease fused to an Ig-like domain, from Raoultella ornithinolytica (enzyme)
  stoichiometry N: 6

From article PMC13056530
